For 1 substance, expansion of JK59 SwR-STEAP1 CAR T cells cultured 21 days with rhTGFβ, expansion of JK69 SwR-STEAP1 CAR T cells cultured 21 days with rhTGFβ and phosphorylation level of STAT5 (pY694) in CD3+ JK59 CAR T cells treated with rhTGFβ results are on record in US20260224624A1.

In the assay the target is recombinant human TGFβ1 (rhTGFβ) (human) (UniProt P01137). Description: cell-based or functional assay.
Sequence of UniProt P01137 (P01137 279-390 limits assumed): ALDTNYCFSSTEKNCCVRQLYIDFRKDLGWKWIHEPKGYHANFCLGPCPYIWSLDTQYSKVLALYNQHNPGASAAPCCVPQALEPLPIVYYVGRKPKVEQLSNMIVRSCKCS

Regarding “TGFβ-switch receptor (SwR): extracellular domains of TGFβRI and TGFβRII fused to the transmembrane and intracellular domains of the IL-2/IL-15 receptor β and γ chains”, the expansion of JK59 SwR-STEAP1 CAR T cells cultured 21 days with rhTGFβ was 15 fold; the expansion of JK69 SwR-STEAP1 CAR T cells cultured 21 days with rhTGFβ is 33 fold; the phosphorylation level of STAT5 (pY694) in CD3+ JK59 CAR T cells treated with rhTGFβ at 10 ng/ml for 15 min, flow cytometry was found to be 60%.
